Reference: US20220411488A1 (APHARMA, published 2022)

Target: T1, human ITIH-1 antigen (inter-alpha trypsin inhibitor heavy chain 1) (human)
T1 construct: Produced in HEK293F cells and purified; used as the immunogen; also called SHAP
Experiment: biolayer interferometry, AR2G biosensor, antibody as ligand
Protocol: 5D6 and 9E1 were bound to ITIH1 with high affinity, as shown in the table below, and affinity was determined by AbClon Inc. using an AR2G (Bio-Sensor).

T1 sequence (chain, as listed by the source limits assumed): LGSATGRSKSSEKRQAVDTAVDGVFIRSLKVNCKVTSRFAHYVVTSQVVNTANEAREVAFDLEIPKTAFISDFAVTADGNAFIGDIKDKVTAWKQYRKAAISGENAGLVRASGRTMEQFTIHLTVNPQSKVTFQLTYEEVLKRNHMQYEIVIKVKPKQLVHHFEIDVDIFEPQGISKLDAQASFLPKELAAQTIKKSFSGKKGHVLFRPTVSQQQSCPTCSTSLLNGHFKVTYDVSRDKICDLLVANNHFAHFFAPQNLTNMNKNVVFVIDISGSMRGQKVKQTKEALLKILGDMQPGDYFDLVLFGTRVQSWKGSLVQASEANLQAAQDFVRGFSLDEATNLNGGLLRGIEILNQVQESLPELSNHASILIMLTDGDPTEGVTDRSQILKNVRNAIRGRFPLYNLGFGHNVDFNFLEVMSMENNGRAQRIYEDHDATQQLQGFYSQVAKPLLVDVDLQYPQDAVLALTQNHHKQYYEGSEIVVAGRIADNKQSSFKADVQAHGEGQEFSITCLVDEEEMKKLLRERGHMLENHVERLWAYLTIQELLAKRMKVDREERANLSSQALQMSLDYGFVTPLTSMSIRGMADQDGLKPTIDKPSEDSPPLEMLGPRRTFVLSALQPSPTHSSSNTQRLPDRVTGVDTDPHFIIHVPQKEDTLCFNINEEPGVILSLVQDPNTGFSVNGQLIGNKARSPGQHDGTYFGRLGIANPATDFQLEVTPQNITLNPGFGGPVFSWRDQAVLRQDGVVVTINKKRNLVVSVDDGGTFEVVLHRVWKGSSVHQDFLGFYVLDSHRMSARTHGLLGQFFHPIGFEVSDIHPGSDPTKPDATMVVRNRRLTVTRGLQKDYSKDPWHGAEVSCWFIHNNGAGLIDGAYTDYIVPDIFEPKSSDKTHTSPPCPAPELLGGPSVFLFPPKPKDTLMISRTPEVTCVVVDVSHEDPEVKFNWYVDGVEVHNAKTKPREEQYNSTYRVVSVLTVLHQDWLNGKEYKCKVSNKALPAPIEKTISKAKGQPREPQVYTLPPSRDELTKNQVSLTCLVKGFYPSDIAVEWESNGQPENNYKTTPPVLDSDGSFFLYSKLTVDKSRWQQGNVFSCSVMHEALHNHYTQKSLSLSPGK

Row | Kd | koff | kon | Binder
1 | 133 pM | 4.45e-05 s⁻¹ | 334000 M⁻¹ s⁻¹ | monoclonal antibody 9E1 against ITIH1 (antibody, V domains shown, Mouse (BALB/c) hybridoma monoclonal antibody made by AbClon Inc; also called antibody clone 9E1; 9E1 clonal antibody) VH: EVQLQQSGTVLARPGASVKMSCRASGYSFTSYWMHWVKQRPGQGLEWIGSIYPGNTDTNYNQKFKGKAKLTAVTSASTAYMELSSLTNEDSAVYYCTRYGTSEGFAYWGQGTLVTVSA VL: DIVMTQSPASLAVSLGQRATISCRASQSVSTSSYSYMHWYQQKPGQPPKLLIKYASNLESGVPARFSGSGSGTDFTLNIHPVEEEDSATYYCQHSWEIPPTFGGGTKLEIK
2 | 243 pM | 7.05e-05 s⁻¹ | 291000 M⁻¹ s⁻¹ | monoclonal antibody 5D6 against ITIH1 (antibody, V domains shown, Mouse (BALB/c) hybridoma monoclonal antibody made by AbClon Inc; also called antibody clone 5D6; 5D6 clonal antibody) VH: EVQLQQSGAELVKPGTSVKMSCKASGYTFTSYWMHWVRQRPGQGLEWIGDIYPGTDSTNYNEKFKSKATLTVDTSSSTAYMQLSSLTSEDSAVYYCSRSGDYYDYWGQGTTVTVSS VL: DIVLTQSPASLAVSLGQRATISCRASQSVSTSSYSYMHWYQQKPGQPPKLLIKYASNLESGVPARFSGSGSGTDFTLNIHPVEEEDTATYYCQHSWEIPWTFGGGTKLEIK
